Data as given in a protein production outcome set (Wang et al. 2014).

Experiment: label from the status in PepcDB records

Sequence	protein production
MQGFLRSLFFGVKKIPKPFAPLVEKGVLKEALELKKDRYFLKEGFDIGKVEKVKDKAFFISLAKNYPKDPLIKNLPPSFKTDALILCQIECSKKRPIAFFKAALLNADHTMIAYLAKKNNQIVAIPFKEPFKKPVSLKHSQKSLLELPRHCVVKIDTKKREISEILGALEDPLIDENLSLSLFDRVKDFSKDCLNLAQHYAQLKASDFKDRINYSHIPFITIDPKDAKDFDDAIFYDQEKRVLFVAVADVSEFVPKHSSLDKEARVRGFSVYFPNSVYPMLPLSLSQGACSLKAFEKRLALVYEIPLDNLKNARLSQGVIEVRANCTYEEINHFLSANQSSLDKDLQQSLLGFLEMALKLKKERLKKGFNFNSFENKLYLNKEGRIEKIETEKESDAHTLIEEAMLLANQSSARLLDEHFHNKGIYRTHKEPSLEQQKRLYDKLFDYEIVRPKNMGFFPFLEHALKIAKEKSIEREVSRLIIKSQNLALYSPLQESHFGLGFASYTHFTSPIRRYSDLALHRLLKELLFYQAKGCSYLLEETPELCAELNALQKKAALIERDFIKRKFARLALELLEKEFLGVVLEVKDWVVVGLKEFIGLKVLVKTNKVFKPLEKVRVTITHADLILGQVRGEITERIKEHVS	failed
MQGGRFMGNKNLIITIEREYGSGGRIVGKKLAEELGIHFYDDDILKLASEKSAVGEQFFRLADEKAGNNLLYRLGGGRKIDLHSKPSPNDKLTSPENLFKFQSEVMRELAESEPCIFVGRAAGYVLDQDEDIERLIRIFVYTDKVKKVQRVMEVDCIDEERAKRRIKKIEKERKEYYKYFTGSEWHSMKNYDLPINTTKLTLEETAELIKAYIRLKGFMD	not failed
MQGGSSGIGYGLKYQSRCISDVKADTDYTSFLTGTLSLKEENEVHLLRLSSGGSELICEGLFSHPNEIWDLASCPFDQRIFSTVFSTGESFGAAIWQIPELYGQLNSPQLERVASLDAHVGKINCVLWWPSGRCDKLISIDEQNIFLWSLDCSKKSAEVLSKDSAGMLHSLSGGAWDPHDVNAVAATGESSVQFWDLRTMKKVNSIEHAHVRGVDYNPKREHILVTAEDESGIHVWDLRKAKVPVQELPGHTHWTWAVRCNPEYDGLILSAGTDSVVNLWYASATSSDDKTSESPVESTRQRVNPLLNSYTDYEDSVYGLAWSSREPWVFASLSYDGRVIIESVKPFLPRI	failed
MQGIKRKLVYVTAYELIGMSISTLGLALLAGSTPTTTGPLAVVITTVAVTWNFIYNCLFEFWERRQAVRGRSIARRVAHAIGFQLTLVVYLIPLIAWWMGISLLEAFWLDLALIVLIPCYTFLFNWAFDRLFGLPTSALPAGEAASV	failed
MQGLVNMVYQQTERLGYKNLEMIKGLDRTENYSKLKKYYRSCVKEYELSNKAIEEAKGFASSKAYRSASEAAARAFDSISMCEAYLEGSKTPGYVTTRNWWFERMCDIDKIFTDLLISAKF	failed
MQGNALTILLSGKKYLLLQGPMGPFFNDVAEWLESLGRNAVNVVFNGGDRFYCRHRQYLAYYQTPKEFPGWLRALHRQYDFDTILCFGDCRPLHKEAKRWAKSKGIRFLAFEEGYLRPQFITVEEGGVNAYSSLPRDPDFYRKLPDMPAPHVENLKPSTMKRIGHAMWYYLMGWHYRHEFPRYRHHKSFSPWYEARCWVRAYWRKQLYKVTQRKVLPRLMNELDQRYYLAVLQVYNDSQIRNHSNYNDVRDYINEVMYSFSRKAPKESYLVIKHHPMDRGHRLYRPLIKRLSKEYGLDERVIYVHDLPMPELLRHAKAVVTINSTAGISALIHNKPLKVMGNALYDIKGLTYQGHLHQFWQADFKPDMKLFKKFRGYLLVKTQVNGGYYGGVKFENALGMNKDFLFGSKSIS	failed
MQHHKVAIIGAGAAGIGMAITLKDFGITDVIILEKGTVGHSFKHWPKSTRTITPSFTSNGFGMPDMNAISMDTSPAFTFNEEHISGETYAEYLQVVANHYELNIFENTVVTNISADDAYYTIATTTETYHADYIFVATGDYNFPKKPFKYGIHYSEIEDFDNFNKGQYVVIGGNESGFDAAYQLAKNGSDIALYTSTTGLNDPDADPSVRLSPYTRQRLGNVIKQGARIEMNVHYTVKDIDFNNGQYHISFDSGQSVHTPHEPILATGFDATKNPIVQQLFVTTNQDIKLTTHDESTRYPNIFMIGATVENDNAKLCYIYKFRARFAVLAHLLTQREGLPAKQEVIENYQKNQMYLDDYSCCEVSCTC	not failed
MQIESFKSLLPKYKCIFFDAFGVLKTYNGLLPGIENTFDYLKAQGQDYYIVTNDASRSPEQLADSYHKLGLFSITADKIISSGMITKEYIDLKVDGGIVAYLGTANSANYLVSDGIKMLPVSAIDDSNIGEVNALVLLDDEGFNWFHDLNKTVNLLRKRTIPAIVANTDNTYPLTKTDVAIAIGGVATMIESILGRRFIRFGKPDSQMFMFAYDMLRQKMEISKREILMVGDTLHTDILGGNKFGLDTALVLTGNTRIDDAETKIKSTGIVPTHICESAVIEL	not failed
MQIKEIFMIRCISCLSVVLLHIISMVLMLQAEALADISHTVDSFRTLLMFSTPAFIFISEFLLARSYPDGVPDGFLKKRGKVIFVPFLFIAAIDALLMTSAMGGEVTFLAFVQKYLANVFLGNFIGYFILVIFQFYMLHMMFHEYLKKASPKWVLSISFVVTAAYLGYFSAASPAPASEEGGAFPFFWVPFAGWLFYFCLAYYCGKEYKRFLALLNQYRWVVYGAAIASGALVVTVSYVGEIGMISSKRPDIMLYSTSMIFLCFHLFSKMKHVPKIMMFISNYSFSIYLLHAYFMIIGYVLLLNMPEIPAVPAVLLLFAVCTAGPIMTSWALNKFKYGYLFVGKIYQPKQKKVTVEVRDHAG	failed
MQILQTFVQSIQGVMTIIVMIAVGYLLARWGWFNESATKLIARLVTQIALPAYMIATITKQFTAHKLLSTLPGLRFPVLNMAILFGISFGVMRALNIKKSHRGLFASMFLNSNTVFIGLPVNQALFGNSALPYVLVYYMANTTIFWTLGVYLIQRDGTGTAKFDLKQTLTKIFSPPLLGFMIGVLLVLGNIHVPKFLMDDFSYIGGLTIPLSMIFIGISMANAGLSSMRFDRDSLGILLGRFILAPVLMTLMLIPMSIPLEMKQVFILQSAMPVMTNAPVVSKLYGADADYAAVMVTETTLLSLIVIPILMVIVQANFIR	failed
MQIPIYSKLKTKLESKGIDNISSGQIAWFVCSLILALVTYIILTFHYIYISYGKYDKNLFLLIFDRNAIELFVIVYSCIMFNLLYIYNAIPLVLSAVFIFLAFYFSSLSLFIVGCCGIGVFFLISIFKRKFMFSVLLFALGYTCTLFFFYGLATY	failed
MQIYLSTLTELDYDKSLNSIEESFDDNPETSWQARAKVKHLRKSPCYNFELEVIAKNENNDVVGHVLLIEVEINSDDKTYYGLAIASLSVHPELRGQKLGRGLVQAVEERAKAQEYSTVVVDHCFDYFEKLGYQNAAEHDIKLESGDAPLLVKYLWDNLTDAPHGIVKFPEHFY	failed
MQKFIIHKGIACPLEYANIDTDQIIPKQFLLAVSKQGFGKHLFHDLRYLDDKESVLNMDFNLNKKEYQNSSILVSFENFGSGSSREHAPWALVDYGIRAIIAPSFADIFKNNALGNGLLTIELAKDEVLEIVDELKKSQDKNIEISLLEKRVFFKDKIFSFDLDDFHRICLLEGLDNIALTLKHEAQIKAYEKNSKSFLV	not failed
MQKGFLLGLFAYATFSMGDATIKSLGSQISVFEIGFFSILFSGIFIFFSKPREERWREFWRMSRPFAVHGRAISGLFAGIFGIYAFTTIPLAEAYALIFLSPLFVTVLSAVVLKENIGPWRWAAVLAGIVGVILVVRPGFKTLELGHIAAIGVAFLAAMTIVLLRSLAGKEKRTSIMGVLLIYGLTFNGIASIPDFVMPNLHQLLAFAFIGLCTATGQITLLVATRIAPASQIAPSHYSQILWAVAIGMTFFHEYPDAIAALGLAVIAASGLLTMIREKVRLGTVRWNPFFRNRL	failed
MQKKSQTAQSYHPMIKEFPEFYGPLTCPGQFLALLILEFGLNFAEIQKLKWENFNWNFKYLTIEKAGIKRVLPIREKFAIRVKAINNADELFAKSRQFLYTELKKFTNYSSKEIREQYILHQVKAGKSIYELATLLGLTTITTLEKYYRLEHHHHHH	failed
MQKLFLTFFYSGSVKKASGTFGTIAALIPAFFILKYLGINTLFLLSILIFVASIRVIDDYEKKTGIHDDKHIVIDEVAGVFLACAIAASVENSIVNFILAFVLFRLFDITKPSIIGKIDKKVKGGLGVMLDDMLAGLFAGLLSAVIYGFLLKFNLVFWDINLKDLF	failed
MQKRVVILLLDSFGIGASEDAKDFGDLGANTLGNIAKACFNNLADSNDRSGALKLPYLESLGLGLSALKAANELPLGFQSQPNLIGAYAYAQELSSAKDTISGHWEMMG	failed
